Patent publication US20260158070A1 (UNIVERSITY OF MARYLAND BALTIMORE, published 2026)

Key:
[1] = molecular target: T1, wild-type K-Ras 4B (in RASless MEFs) (Homo sapiens (Human), UniProt P01116-2 1-185); assay: flow cytometry, surface staining of RASless MEFs, 10 µg/ml
T1 construct: Expressed by lentiviral transduction in RASless mouse embryonic fibroblasts; stained on live cells by flow cytometry, in lysates by western blot; also called MEF-K-Ras-4B; 4B splice variant of K-Ras

[2] = molecular target: T2, wild-type K-Ras 4A (in RASless MEFs) (Homo sapiens (Human), UniProt P01116 1-186); assay: as above
T2 construct: Expressed by lentiviral transduction in RASless mouse embryonic fibroblasts; stained on live cells by flow cytometry, in lysates by western blot; also called MEF-K-Ras-4A

B1: Human Anti-K-Ras Antibody 1 (antibody, human IgG1, lambda, N297G, V domains shown)
VH: EVQLVQSGGGVVQPGRSLRLSCAASGFTSRHPGMHWVRQAPGKGLEWVAVISHDGSKKYYADSVKGRFTISRDNSKNTLFVQLSSLRPEDTAVYYCATSLYSSMDLWGQGTTVTVSS
VL: QSVVTQPPSVSAAPGQKVTISCSGSNSNIGKNYVSWFQQVPGTAPKLLIFEDNQRPSGIPDRFSASKSGTSASLAISGLQSEDEADYYCAAWDDKFGVHWVFGGGTKLTVLG
notes: also called human K-Ras antibody 1; Human K-RAS Antibody 1
B1: binds [1]; binds [2].
